Reference: article PMC12416549 (2024)

T1: TNFR1 (Homo sapiens, UniProt P19438)
T1 chain: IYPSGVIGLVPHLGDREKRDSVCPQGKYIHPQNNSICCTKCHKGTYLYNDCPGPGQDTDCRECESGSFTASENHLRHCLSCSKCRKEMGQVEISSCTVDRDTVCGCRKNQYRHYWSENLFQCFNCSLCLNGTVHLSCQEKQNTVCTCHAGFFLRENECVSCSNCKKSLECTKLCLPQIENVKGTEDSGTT


Target: T1, TNFR1
Experiment: yeast display SC50

Row | apparent Kd (screen) | Binder
1 | 593 pM | L75V (designed binder) MTLQELLREEALRRAEAEAFRYALELLAEKFPEQKEYLLDLAEEIESQIRSLSGVDVEDVRKFLDKEWAWVKELVAEHPAELAEVEAARAARLAELRAEVEAKVAA
2 | 3000 pM | V60K (designed binder) MTLQELLREEALRRAEAEAFRYALELLAEKFPEQKEYLLDLAEEIESQIRSLSGVDVEDKRKFLDKEWAWVKELLAEHPAELAEVEAARAARLAELRAEVEAKVAA
3 | 7780 pM | E44D (designed binder) MTLQELLREEALRRAEAEAFRYALELLAEKFPEQKEYLLDLAEDIESQIRSLSGVDVEDVRKFLDKEWAWVKELLAEHPAELAEVEAARAARLAELRAEVEAKVAA
4 | 593 pM | V100D (designed binder) MTLQELLREEALRRAEAEAFRYALELLAEKFPEQKEYLLDLAEEIESQIRSLSGVDVEDVRKFLDKEWAWVKELLAEHPAELAEVEAARAARLAELRAEDEAKVAA
5 | 10400 pM | F20R (designed binder) MTLQELLREEALRRAEAEARRYALELLAEKFPEQKEYLLDLAEEIESQIRSLSGVDVEDVRKFLDKEWAWVKELLAEHPAELAEVEAARAARLAELRAEVEAKVAA
6 | 869 pM | A105G (designed binder) MTLQELLREEALRRAEAEAFRYALELLAEKFPEQKEYLLDLAEEIESQIRSLSGVDVEDVRKFLDKEWAWVKELLAEHPAELAEVEAARAARLAELRAEVEAKVGA
7 | 956 pM | A69F (designed binder) MTLQELLREEALRRAEAEAFRYALELLAEKFPEQKEYLLDLAEEIESQIRSLSGVDVEDVRKFLDKEWFWVKELLAEHPAELAEVEAARAARLAELRAEVEAKVAA
8 | 2480 pM | L39N (designed binder) MTLQELLREEALRRAEAEAFRYALELLAEKFPEQKEYLNDLAEEIESQIRSLSGVDVEDVRKFLDKEWAWVKELLAEHPAELAEVEAARAARLAELRAEVEAKVAA
9 | 490 pM | E18N (designed binder) MTLQELLREEALRRAEANAFRYALELLAEKFPEQKEYLLDLAEEIESQIRSLSGVDVEDVRKFLDKEWAWVKELLAEHPAELAEVEAARAARLAELRAEVEAKVAA
10 | 539 pM | R13C (designed binder) MTLQELLREEALCRAEAEAFRYALELLAEKFPEQKEYLLDLAEEIESQIRSLSGVDVEDVRKFLDKEWAWVKELLAEHPAELAEVEAARAARLAELRAEVEAKVAA
11 | 490 pM | S47R (designed binder) MTLQELLREEALRRAEAEAFRYALELLAEKFPEQKEYLLDLAEEIERQIRSLSGVDVEDVRKFLDKEWAWVKELLAEHPAELAEVEAARAARLAELRAEVEAKVAA
12 | 539 pM | L27Y (designed binder) MTLQELLREEALRRAEAEAFRYALELYAEKFPEQKEYLLDLAEEIESQIRSLSGVDVEDVRKFLDKEWAWVKELLAEHPAELAEVEAARAARLAELRAEVEAKVAA
13 | 490 pM | A11R (designed binder) MTLQELLREERLRRAEAEAFRYALELLAEKFPEQKEYLLDLAEEIESQIRSLSGVDVEDVRKFLDKEWAWVKELLAEHPAELAEVEAARAARLAELRAEVEAKVAA
14 | 2480 pM | I49E (designed binder) MTLQELLREEALRRAEAEAFRYALELLAEKFPEQKEYLLDLAEEIESQERSLSGVDVEDVRKFLDKEWAWVKELLAEHPAELAEVEAARAARLAELRAEVEAKVAA
15 | 653 pM | Q34K (designed binder) MTLQELLREEALRRAEAEAFRYALELLAEKFPEKKEYLLDLAEEIESQIRSLSGVDVEDVRKFLDKEWAWVKELLAEHPAELAEVEAARAARLAELRAEVEAKVAA
16 | 1160 pM | L41S (designed binder) MTLQELLREEALRRAEAEAFRYALELLAEKFPEQKEYLLDSAEEIESQIRSLSGVDVEDVRKFLDKEWAWVKELLAEHPAELAEVEAARAARLAELRAEVEAKVAA
17 | 653 pM | L38F (designed binder) MTLQELLREEALRRAEAEAFRYALELLAEKFPEQKEYFLDLAEEIESQIRSLSGVDVEDVRKFLDKEWAWVKELLAEHPAELAEVEAARAARLAELRAEVEAKVAA
18 | 869 pM | V55F (designed binder) MTLQELLREEALRRAEAEAFRYALELLAEKFPEQKEYLLDLAEEIESQIRSLSGFDVEDVRKFLDKEWAWVKELLAEHPAELAEVEAARAARLAELRAEVEAKVAA

Row | apparent Kd (screen) | Binder
19 | 593 pM | A17Y (designed binder) MTLQELLREEALRRAEYEAFRYALELLAEKFPEQKEYLLDLAEEIESQIRSLSGVDVEDVRKFLDKEWAWVKELLAEHPAELAEVEAARAARLAELRAEVEAKVAA
20 | 653 pM | E16S (designed binder) MTLQELLREEALRRASAEAFRYALELLAEKFPEQKEYLLDLAEEIESQIRSLSGVDVEDVRKFLDKEWAWVKELLAEHPAELAEVEAARAARLAELRAEVEAKVAA
21 | 490 pM | R97F (designed binder) MTLQELLREEALRRAEAEAFRYALELLAEKFPEQKEYLLDLAEEIESQIRSLSGVDVEDVRKFLDKEWAWVKELLAEHPAELAEVEAARAARLAELFAEVEAKVAA
22 | 10400 pM | A19K (designed binder) MTLQELLREEALRRAEAEKFRYALELLAEKFPEQKEYLLDLAEEIESQIRSLSGVDVEDVRKFLDKEWAWVKELLAEHPAELAEVEAARAARLAELRAEVEAKVAA
23 | 2050 pM | A19L (designed binder) MTLQELLREEALRRAEAELFRYALELLAEKFPEQKEYLLDLAEEIESQIRSLSGVDVEDVRKFLDKEWAWVKELLAEHPAELAEVEAARAARLAELRAEVEAKVAA
24 | 869 pM | L93R (designed binder) MTLQELLREEALRRAEAEAFRYALELLAEKFPEQKEYLLDLAEEIESQIRSLSGVDVEDVRKFLDKEWAWVKELLAEHPAELAEVEAARAARRAELRAEVEAKVAA
25 | 405 pM | A76T (designed binder) MTLQELLREEALRRAEAEAFRYALELLAEKFPEQKEYLLDLAEEIESQIRSLSGVDVEDVRKFLDKEWAWVKELLTEHPAELAEVEAARAARLAELRAEVEAKVAA
26 | 539 pM | K103P (designed binder) MTLQELLREEALRRAEAEAFRYALELLAEKFPEQKEYLLDLAEEIESQIRSLSGVDVEDVRKFLDKEWAWVKELLAEHPAELAEVEAARAARLAELRAEVEAPVAA
27 | 653 pM | L24V (designed binder) MTLQELLREEALRRAEAEAFRYAVELLAEKFPEQKEYLLDLAEEIESQIRSLSGVDVEDVRKFLDKEWAWVKELLAEHPAELAEVEAARAARLAELRAEVEAKVAA
28 | 539 pM | A102V (designed binder) MTLQELLREEALRRAEAEAFRYALELLAEKFPEQKEYLLDLAEEIESQIRSLSGVDVEDVRKFLDKEWAWVKELLAEHPAELAEVEAARAARLAELRAEVEVKVAA
29 | 539 pM | A102N (designed binder) MTLQELLREEALRRAEAEAFRYALELLAEKFPEQKEYLLDLAEEIESQIRSLSGVDVEDVRKFLDKEWAWVKELLAEHPAELAEVEAARAARLAELRAEVENKVAA
30 | 539 pM | A102K (designed binder) MTLQELLREEALRRAEAEAFRYALELLAEKFPEQKEYLLDLAEEIESQIRSLSGVDVEDVRKFLDKEWAWVKELLAEHPAELAEVEAARAARLAELRAEVEKKVAA
31 | 490 pM | K30E (designed binder) MTLQELLREEALRRAEAEAFRYALELLAEEFPEQKEYLLDLAEEIESQIRSLSGVDVEDVRKFLDKEWAWVKELLAEHPAELAEVEAARAARLAELRAEVEAKVAA
32 | 1050 pM | F20I (designed binder) MTLQELLREEALRRAEAEAIRYALELLAEKFPEQKEYLLDLAEEIESQIRSLSGVDVEDVRKFLDKEWAWVKELLAEHPAELAEVEAARAARLAELRAEVEAKVAA
33 | 2250 pM | F20Q (designed binder) MTLQELLREEALRRAEAEAQRYALELLAEKFPEQKEYLLDLAEEIESQIRSLSGVDVEDVRKFLDKEWAWVKELLAEHPAELAEVEAARAARLAELRAEVEAKVAA
34 | 539 pM | A15G (designed binder) MTLQELLREEALRRGEAEAFRYALELLAEKFPEQKEYLLDLAEEIESQIRSLSGVDVEDVRKFLDKEWAWVKELLAEHPAELAEVEAARAARLAELRAEVEAKVAA
35 | 539 pM | A91L (designed binder) MTLQELLREEALRRAEAEAFRYALELLAEKFPEQKEYLLDLAEEIESQIRSLSGVDVEDVRKFLDKEWAWVKELLAEHPAELAEVEAARALRLAELRAEVEAKVAA
